Laboratory results as given in patent publication US20090131312A1.

B1: recombinant human MIG (ligand, UniProt Q07325 23-125, looked up)
C-X-C motif chemokine 9: TPVVRKGRCSCISTNQGTIHLQSLKDLKQFAPSPSCEKIEIIATLKNGVQTCLNPDSADVKELIKKWEKQVSQKKKQKNGKKHQKKKVLKVRKSQRSRQKKTT
B2: recombinant human PF4 (ligand, UniProt P02776 32-101, looked up)
Platelet factor 4: EAEEDGDLQCLCVKTTSQVRPRHITSLEVIKAGPHCPTAQLIATLKNGRKICLDLQAPLYKKIIKKLLES
B3: recombinant human I-TAC (ligand, UniProt O14625 22-94, looked up)
C-X-C motif chemokine 11: FPMFKRGRCLCIGPGVKAVKVADIEKASIMYPSNNCDKIEVIITLKENKGQRCLNPKSKQARLIIKKVERKNF

What follows are molecules tested against human CXCR3 (human) (UniProt P49682) (assay: cell-based or functional assay).
UniProt P49682, sequence (P49682 whole entry): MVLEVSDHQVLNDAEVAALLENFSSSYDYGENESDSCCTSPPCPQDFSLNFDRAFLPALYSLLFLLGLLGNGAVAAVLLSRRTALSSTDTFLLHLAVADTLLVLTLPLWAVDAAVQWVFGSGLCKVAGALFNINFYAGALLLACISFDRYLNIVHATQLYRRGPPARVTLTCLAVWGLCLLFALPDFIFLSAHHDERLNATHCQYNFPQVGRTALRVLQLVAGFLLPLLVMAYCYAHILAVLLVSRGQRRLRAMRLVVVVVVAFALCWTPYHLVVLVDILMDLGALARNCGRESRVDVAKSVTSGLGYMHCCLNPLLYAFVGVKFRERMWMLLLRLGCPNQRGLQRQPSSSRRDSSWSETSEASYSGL

Row | phosphorylated ERK1/2 (immunoblot), fold induction over control levels; HMVEC, 2 min. (fold induction over control) | phosphorylated ERK1/2 (immunoblot), fold induction over control levels; HMVEC, 5 min. (fold induction over control) | phosphorylated ERK1/2 (immunoblot), fold induction over control levels; HMVEC, 15 min. (fold induction over control) | phosphorylated ERK1/2 (immunoblot), fold induction over control levels; HUVEC, 2 min. (fold induction over control) | phosphorylated ERK1/2 (immunoblot), fold induction over control levels; HUVEC, 5 min. (fold induction over control) | phosphorylated ERK1/2 (immunoblot), fold induction over control levels; HUVEC, 15 min. (fold induction over control) | phosphorylated ERK1/2 (immunoblot), fold induction over control levels; Pre-B-cells expressing human CXCR3, 2 min. (fold induction over control) | phosphorylated ERK1/2 (immunoblot), fold induction over control levels; Pre-B-cells expressing human CXCR3, 5 min. (fold induction over control) | phosphorylated ERK1/2 (immunoblot), fold induction over control levels; Pre-B-cells expressing human CXCR3, 15 min. (fold induction over control) | Molecule
1 | 0.333 | 0.07 | 0.382 | 10.3 | 10.8 | 6.87 | 1.03 | 0.921 | 0.57 | recombinant human IP-10 (ligand)
2 | 0.915 | 1.06 | 3.28 | 4.13 | 5.68 | 9.83 | 1.57 | 1.16 | 0.931 | native PF4 with native I-TAC N-loop (ligand)
3 | 1.56 | 1.13 | 1.31 | 5.35 | 6.96 | 5.76 | 0.795 | 0.842 | 1.76 | B1
4 | 1.01 | 0.895 | 1.78 | 6.85 | 9.63 | 11.5 | 1.25 | 1.33 | 1.45 | B2
5 | 0.205 | 0.137 | 3.08 | 1.65 | 1.36 | 1.31 | 2.24 | 1.38 | 1.22 | B3
